This is an account of results in patent US20240376155A1, “NOVEL COMPOUNDS AND COMPOSITIONS FOR TARGETED THERAPY OF RENAL CANCERS” (SHANGHAI MICURX PHARMACEUTICAL CO., LTD., priority 2021, published 2024).

Molecules are shown by their SMILES. Like-named read-outs stand apart in the source and are kept apart here. Bridge positions count the residues as written; N and C are the ends. Square brackets hold non-standard residues; d marks the D form. Peptide text beside a SMILES is read from it. * marks the point of attachment. ξ: configuration not given here. X1 = CNC(=O)c1ccccc1Sc1ccc2c(/C=C/c3ccccn3)nn(C(=O)N(CCNC(=O)[C@@H](N)CCC(=O)O)CCC(=O)*)c2c1; X3 = CNC(=O)c1ccccc1Sc1ccc2c(/C=C/c3ccccn3)nn(C(=O)N(CCOC(=O)[C@@H](N)CCC(=O)O)CCC(=O)*)c2c1; X2 = CNC(=O)c1ccccc1Sc1ccc2c(/C=C/c3ccccn3)nn(C(=O)N(CCNC(=O)CC[C@H](N)C(=O)O)CCC(=O)*)c2c1; Thr(3ξ) = CC(O)[C@H](N)C(=O)O; Dab = NCC[C@H](N)C(=O)O; ξL = CC(C)CC(N)C(=O)O

For data set [1] the following is noted: for Blood Plasma Conc. of axitinib / Blood Plasma Conc. of released axitinib / Kidney Tissue Conc. of released axitinib: mouse; for Blood Plasma Conc. of axitinib: oral gavage, single dose 30 mg/kg; for axitinib level in kidney tissues vs from axitinib itself: 3 mg/kg compound vs 30 mg/kg oral axitinib; for Blood Plasma Conc. of released axitinib / Kidney Tissue Conc. of released axitinib: injection, single dose 3 mg/kg; for Kidney Tissue Conc. of released axitinib: corrected for kidney tissue density.

The conditions of data set [2]: axitinib therapy, human use; cited from earlier work.
The test system of data set [3] is luciferase-expressing A498 renal cancer cell line (A498-luc). The settings on record: 12 mg/kg/day ip vs axitinib at 30 mg/kg/day.
Method: An illustrative efficacy study for the compounds described herein was investigated in an orthotopic mouse model. In this model, a luciferase-expressing A498 renal cancer cell line (A498-luc) was used. The cancer cells were implanted into a kidney capsule and the tumor growth and effect were monitored by the image size using IVIS Lumina III (Perkin Elmer) and mouse body weight changes. Specifically, mice were anesthetized by SC injection of Zolet™ m 50 (Virbac S. A.) after 24 h fasting. The skin of anesthetized mice was sterilized with iodine followed by alcohol. 4×10^6 luciferase-expressing A498-luc cells were implanted in the left kidney by insulin syringe. The skin incisions were closed with autosuture clip. The tumor growths were monitored by image analysis. […] At 10 mins after the luciferin injection, the mice were imaged (once a week). Living image software (Perkin Elmer) is used to compute regions of interest (ROI) and integrate the total bioluminescence signal in each ROI. Bioluminescent signals (photos/s) from ROI were quantified and used as an indicator of tumor growth and antitumor activity. Body weight of all mice were measured twice a week throughout the study.
Another data set deals with HK-2 cell line. Nature of the data set: HK-2 cytotoxicity assay. The format is cell-based, human. The source says: The assay is analogously to that described, for example, by Keirstead et al. in Toxicol. Sci. 2014, vol. 137, pp. 278-291.
Data set [4] in a line: In vitro antibacterial activity (MIC). The class given is cell-based. The settings on record: relative to polymyxin antibiotics such as polymyxin B and colistin.
Data set [5] in a line: 14-days repeat-dose mouse tolerability test. The format is in vivo. The note with it: dose of at least 18 mg/kg/day.
The nature of the next data set: in vivo. The settings on record: mouse, 3 mg/kg; for level at 3 h: iv. The text has this: Preferential accumulation of compounds provided herein in kidneys (or near the site of a kidney cancer) may be evaluated by pharmacokinetic (PK) tests, such as in a standard rat PK test.

`CNC(=O)c1ccccc1Sc1ccc2c(/C=C/c3ccccn3)n[nH]c2c1` [Axitinib, N-methyl-2-[[3-[(E)-2-pyridin-2-ylethenyl]-1H-indazol-6-yl]sulfanyl]benzamide, reference compound]: the “Blood Plasma Conc. of axitinib” value is “T = 3 h: 397.3 ng/mL” in data set [1] (T = 3 h), “T = 6 h: 75.6 ng/mL” in data set [1] (T = 6 h), “T = 12 h: 11.4 ng/mL” in data set [1] (T = 12 h) and “T = 24 h: BLQ^d” in data set [1] (T = 24 h). Besides, in data set [2], the “incidence of hypertensive adverse effects” value is recorded as 40-64%.
`CNC(=O)c1ccccc1Sc1ccc2c(/C=C/c3ccccn3)nn(C(=O)N(CCNC(=O)[C@@H](N)CCC(=O)O)CCC(=O)N[C@H](C(=O)N[C@@H](CCN)C(=O)N[C@H]3CCNC(=O)[C@H](C(C)O)NC(=O)[C@H](CCN)NC(=O)[C@H](CCN)NC(=O)[C@H](CC(C)C)NC(=O)[C@@H](Cc4ccccc4)NC(=O)[C@H](CCN)NC3=O)C(C)O)c2c1` (stereo partly shown) [Example 1] (X1-[Thr(3ξ)][Dab][Dab][Dab][dF]L[Dab][Dab][Thr(3ξ)]; lactam 3-C): the “body weight change (loss in weight) during efficacy study” value in data set [3] was “minimized loss in weight”. Moreover, the “In vitro human HK-2 assay IC50” value with HK-2 cell line (HK-2 immortalized proximal tubule cells from normal human kidney) was above 100 µg/mL. Moreover, the “fold less active than axitinib in HK-2 cytotoxicity assay” value in the data set on HK-2 cell line (vs axitinib (free drug form)) is 2-3 fold. Further, the “antibacterial activity (MIC, minimum inhibitory concentration)” value in data set [4] is on record as “minimized antibacterial activity”. The “axitinib level in kidney tissues vs from axitinib itself” value in data set [1] (at 3 h) is recorded as 6.50 fold; in data set [1] (at 6 h) it was “about 15 fold”. For the same molecule, the “Blood Plasma Conc. of released axitinib” value is listed as “T = 3 h: 9.7 ng/mL” in data set [1] (T = 3 h), “T = 6 h: 4.0 ng/mL” in data set [1] (T = 6 h), “T = 12 h: BLQ” in data set [1] (T = 12 h) and “T = 24 h: BLQ” in data set [1] (T = 24 h). The “Kidney Tissue Conc. of released axitinib” value in data set [1] (T = 3 h) is given as “T = 3 h: 1955.3 ng/mL”; in data set [1] (T = 6 h), “T = 6 h: 1448.5 ng/mL”; in data set [1] (T = 12 h), “T = 12 h: 1437.9 ng/mL”. In addition, the tolerability result in data set [5] is reported as “well-tolerated”. The “Kidney-to-Blood Conc. Ratio” value in “in vivo” (T = 3 h after injection) was determined as 63. For the same molecule, the level at 3 h in “in vivo” (kidney) amounted to 563 ng/mL; in the data set “in vivo” (plasma), 9 ng/mL.
`CNC(=O)c1ccccc1Sc1ccc2c(/C=C/c3ccccn3)nn(C(=O)N(CCNC(=O)[C@@H](N)CCC(=O)O)CCC(=O)N[C@H]3CCNC(=O)[C@H]([C@@H](C)O)NC(=O)[C@H](CCN)NC(=O)[C@H](CCN)NC(=O)C(CC(C)C)NC(=O)[C@@H](Cc4ccccc4)NC(=O)[C@H](CCN)NC3=O)c2c1` (stereo partly shown) [Example 2] (X1-[Dab][Dab][dF][ξL][Dab][Dab]T; lactam 1-C): in data set [1] (T = 3 h), the “Blood Plasma Conc. of released axitinib” value is recorded as “T = 3 h: 3.3 ng/mL” and the “Kidney Tissue Conc. of released axitinib” value was “T = 3 h: 5140 ng/mL”. For the same molecule, in data set [1] (T = 6 h), the “Blood Plasma Conc. of released axitinib” value is given as “T = 6 h: BLQ” and the “Kidney Tissue Conc. of released axitinib” value is listed as “T = 6 h: 4630 ng/mL”.
Turning to `CNC(=O)c1ccccc1Sc1ccc2c(/C=C/c3ccccn3)nn(C(=O)N(CCOC(=O)[C@@H](N)CCC(=O)O)CCC(=O)N[C@H]3CCNC(=O)[C@H]([C@@H](C)O)NC(=O)[C@H](CCN)NC(=O)[C@H](CCN)NC(=O)C(CC(C)C)NC(=O)[C@@H](Cc4ccccc4)NC(=O)[C@H](CCN)NC3=O)c2c1` (stereo partly shown) [Example 7] (X3-[Dab][Dab][dF][ξL][Dab][Dab]T; lactam 1-C), the “Blood Plasma Conc. of released axitinib” value in data set [1] (T = 3 h) is “T = 3 h: 14.5 ng/mL”; in data set [1] (T = 6 h), “T = 6 h: BLQ”. Moreover, the entries for the “Kidney Tissue Conc. of released axitinib” value in data set [1] (T = 3 h) and in data set [1] (T = 6 h) were “T = 3 h: 4280 ng/mL” and “T = 6 h: 4860 ng/mL”, respectively.
The corresponding values for `CNC(=O)c1ccccc1Sc1ccc2c(/C=C/c3ccccn3)nn(C(=O)N(CCNC(=O)CC[C@H](N)C(=O)O)CCC(=O)N[C@H](C(=O)N[C@@H](CCN)C(=O)N[C@H]3CCNC(=O)[C@H]([C@@H](C)O)NC(=O)[C@H](CCN)NC(=O)[C@H](CCN)NC(=O)[C@H](CC(C)C)NC(=O)[C@@H](Cc4ccccc4)NC(=O)[C@H](CCN)NC3=O)[C@@H](C)O)c2c1` [Example 9, reference compound] (X2-T[Dab][Dab][Dab][dF]L[Dab][Dab]T; lactam 3-C) are “T = 3 h: 14.9 ng/mL”, “T = 6 h: BLQ”, “T = 3 h: 371.6 ng/mL” and “T = 6 h: 28.8 ng/mL”.
